# B1: Kif1b site 1 (dsDNA)
# DNA 1: ATGACCAATAGTAAAGCGTGGCTGGAAGAGGGG
# DNA 2: CCCCTCTTCCAGCCACGCTTTACTATTGGTCAT
# B2: Kif1b site 2 (dsDNA)
# DNA 1: TAGGAAGCTTTCTGCTGGATACACTCATGCCTGAGCGTG
# DNA 2: CACGCTCAGGCATGAGTGTATCCAGCAGAAAGCTTCCTA
# Target: Pax6 PD/HD (UniProt P63015 4-269)
# Assay: EMSA; not given in the material
# Conditions: protein: recombinant; blunt
# Pax6 PD/HD, sequence (P63015 4-269): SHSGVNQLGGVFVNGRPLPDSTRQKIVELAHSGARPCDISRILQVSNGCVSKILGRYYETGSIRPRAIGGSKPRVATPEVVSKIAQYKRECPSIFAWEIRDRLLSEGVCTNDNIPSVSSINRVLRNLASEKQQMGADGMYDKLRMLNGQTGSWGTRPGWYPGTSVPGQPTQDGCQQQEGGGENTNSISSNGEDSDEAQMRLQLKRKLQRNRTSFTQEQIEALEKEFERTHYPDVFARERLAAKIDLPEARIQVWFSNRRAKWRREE
row,Binder,binding result
1,B1,binds
2,B2,binds

# From paper PMC3544819, “Pax6 Interactions with Chromatin and Identification of Its Novel Direct Target Genes in Lens and Forebrain”
